Results published in patent US20030091557.

Test system: ACE-2 inhibitor peptide (the most active ACE-2 inhibitor peptide)

| Substance | hydrolysis of the substrate hip-his-leu (250 mM) by ACE (1.5 nM) | conversion of angiotensin I to A1-9 by ACE-2 |
| --- | --- | --- |
| Angiotensin converting enzyme (ACE) | the inhibitor did not affect the hydrolysis of the substrate, hip-his-leu (250 mM) by ACE (1.5 nM), even at 25 mM | – |
| recombinant human ACE-2 | – | This peptide also inhibited conversion of angiotensin I to A1-9 by ACE-2 |
